The record followed here is patent US20130095104A1 (OMEROS, published 2013).

Assay [1] concerns the target T1, human Frizzled-10 (FZD10) (human, UniProt Q9ULW2 21-581).
T1 construct: no signal peptide limits are stated; also called FZ10; CD350
T1 sequence: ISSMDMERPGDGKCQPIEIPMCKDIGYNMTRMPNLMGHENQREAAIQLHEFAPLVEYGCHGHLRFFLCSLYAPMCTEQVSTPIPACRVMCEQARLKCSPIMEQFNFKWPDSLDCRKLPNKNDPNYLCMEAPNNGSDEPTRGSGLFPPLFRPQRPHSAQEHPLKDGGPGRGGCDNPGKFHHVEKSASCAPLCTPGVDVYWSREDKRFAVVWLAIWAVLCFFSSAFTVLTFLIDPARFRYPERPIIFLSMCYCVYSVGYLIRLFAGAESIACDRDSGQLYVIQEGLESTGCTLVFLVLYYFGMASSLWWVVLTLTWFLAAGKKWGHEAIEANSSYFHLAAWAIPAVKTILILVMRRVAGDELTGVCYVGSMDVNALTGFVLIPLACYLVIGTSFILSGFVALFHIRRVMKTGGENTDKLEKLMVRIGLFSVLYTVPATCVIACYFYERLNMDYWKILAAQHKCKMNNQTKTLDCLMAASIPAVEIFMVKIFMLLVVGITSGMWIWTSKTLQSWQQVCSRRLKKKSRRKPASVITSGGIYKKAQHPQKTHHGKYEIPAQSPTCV
Nature of the assay: saturation binding on SYO-1 cells, flow cytometry; B9L9.3 on SYO-1 cells, Example 1 (FIG. 3). The method, then:
(§1) Recombinant antibodies were generated by cloning PCR-amplified V regions (Cummings et al., 2007 Supra) into a vector that supported expression of human IgG1 in 293F cells. Saturation binding kinetics were determined by either staining FZD10-specific DTLacO cells with various concentrations of fluorescent-labeled soluble antigen, or by staining FZD10-transfected cells or cancer cell lines intrinsically expressing FZD10 with various concentrations of the recombinant chimeric anti-FZD10 mAbs. To assay cell surface FZD10 binding, cells were stained with chimeric mAb clones B9A5 (parent), B9132.2 and B9L9.3 (progeny) or secondary antibody alone, all at concentrations ranging from […] to 800 nM, and analyzed by immunocytofluorimetry.

Assay [2] has as its target T1, human Frizzled-10 (FZD10). Nature of the assay: saturation binding of recombinant antibody on SYO-1 cells; Table 2 comparison with the humanized antibody.
For assay [3], the target named is T1, human Frizzled-10 (FZD10). Nature of the assay: saturation binding of recombinant antibody on SYO-1 cells (FZD10+), flow cytometry MFI against Ab (nM). The method, then:
Affinity was determined by measuring saturation binding kinetics of the recombinant antibodies on SYO-1 cells.
Background: In flow cytometry, cells or beads pass a laser one at a time.

Assay [4] addresses T1, human Frizzled-10 (FZD10). Nature of the assay: saturation binding on SYO-1 cells, flow cytometry; B9L32.2 on SYO-1 cells. The method, then:
as §1

The target of assay [5] is T1, human Frizzled-10 (FZD10). Nature of the assay: saturation binding of recombinant antibody on SYO-1 cells.

B1: chimeric anti-FZD10 mAb B9L9.3 (antibody, V domains shown)
VH: AVTLDESGGGLQTPGGALSLVCKASGFTFSSFNMFWVRQEPGKGLEWVAGIDDDGSYPNYGSAVKGRATISRDNGQSTLRLQLNNLRAEDTGTYFCAKSGYGGSWGGYIADDIDAWGHGTEVIVSS
VL: ALTQPASVSANPGETVKITCSGDGSYAGSYYYGWYQQKAPGSAPVTLIYYNNKRPSDIPSRFSGSLSGSTNTLTITGVRADDEAVYFCGSADNSGAAFGAGTTLTVL
notes: also called Chimeric B9L9.3; progeny clone B9L9.3
For the molecule B1, the Kd was 220 pM in assay [1] and 160 pM in assay [2]. Besides, the half-maximal effective concentration (EC50 (read off the curve)) in assay [3] was ~100 pM.

B2: chimeric anti-FZD10 mAb B9L32.2 (antibody, human IgG1, V domains shown)
VH: B1 VH
VL: ALTQPASVSANPGETVKITCSGSDSSYAGSYYYGWYQQKAPGSAPVTLIYYNNKRPSDIPSRFSGSLSGSTNTLTITGVRADDEAVYFCGSADNSGAAFGAGTTLTVL
notes: also called progeny clone B9L32.2
Consider B2, for which binding in assay [4] was put at a Kd of 40000 pM.

B3: humanized B9L9.3 antibody (antibody, human IgG1, lambda, V domains shown)
VH: EVQLVESGGGLVQPGGSLRLSCAASGFTFSSFNMFWVRQAPGKGLEWVAGIDDDGSYPNYGSAVKGRATISRDNSKNTLYLQMNSLRAEDTAVYYCAKSGYGGSWGGYIADDIDAWGQGTLVTVSS
VL: ELTQPPSVSVSPGQTARITCSGDGSYAGSYYYGWYQQKPGQAPVTLIYYNNKRPSGIPERFSGSLSGSTNTLTISGVQAEDEADYYCGSADNSGAAFGGGTKLTVLG
notes: Mature humanized heavy chain with human IgG1 constant region and mature humanized light chain with human lambda constant region; also called hB9L9.3; humanized B9L9.3 mAb
Consider B3, for which the Kd in assay [5] was determined as 220 pM. Besides, the concentration for a half-maximal effect (EC50 (read off the curve)) in assay [3] was ~200 pM.

What is called Kd is a measure of binding affinity in units of concentration. The term EC50 (read off the curve) denotes the concentration needed to bring the measured effect to its halfway point.
